In publication PMC11624264, “Phosphorylation of P-stalk proteins defines the ribosomal state for interaction with auxiliary protein factors” (EMBO Reports, 2024):
Several values for one entry are separate records, joined by “and”; a condition that tells them apart may be missing. Identical values can stand only once. One block for each molecule: values may come before it.

How the values were obtained:
[1] = target: native (phosphorylated) yeast pentameric P-stalk complex ΔuL10(199-312)-(P1A–P2B)-(P1B–P2A) (S. cerevisiae) (UniProt P05317)
[2] = target: P-stalk of 80S ribosomes from the SDPM yeast mutant strain (S to A mutations within all P-stalk proteins at the C-termini) (S. cerevisiae) (UniProt P05317)
eIF5B = target: T1, eIF5B (UniProt P39730 1-1002); assay: MST; P-stalk complex labelled with RED-tris-NTA on its His tag, 5 nM, titrated with unlabelled eIF5B (dilution series from 1.48 μM); PBS with 0.05% Tween-20 and 1 mg/ml BSA; 25 °C; Monolith NT.115 Pico; details: both partners purified
T1 construct: translation initiation factor eIF5B; also called trGTPase eIF5B; source: purified as previously described (Blanchet and Ranjan, 2022)
T1 sequence (looked up): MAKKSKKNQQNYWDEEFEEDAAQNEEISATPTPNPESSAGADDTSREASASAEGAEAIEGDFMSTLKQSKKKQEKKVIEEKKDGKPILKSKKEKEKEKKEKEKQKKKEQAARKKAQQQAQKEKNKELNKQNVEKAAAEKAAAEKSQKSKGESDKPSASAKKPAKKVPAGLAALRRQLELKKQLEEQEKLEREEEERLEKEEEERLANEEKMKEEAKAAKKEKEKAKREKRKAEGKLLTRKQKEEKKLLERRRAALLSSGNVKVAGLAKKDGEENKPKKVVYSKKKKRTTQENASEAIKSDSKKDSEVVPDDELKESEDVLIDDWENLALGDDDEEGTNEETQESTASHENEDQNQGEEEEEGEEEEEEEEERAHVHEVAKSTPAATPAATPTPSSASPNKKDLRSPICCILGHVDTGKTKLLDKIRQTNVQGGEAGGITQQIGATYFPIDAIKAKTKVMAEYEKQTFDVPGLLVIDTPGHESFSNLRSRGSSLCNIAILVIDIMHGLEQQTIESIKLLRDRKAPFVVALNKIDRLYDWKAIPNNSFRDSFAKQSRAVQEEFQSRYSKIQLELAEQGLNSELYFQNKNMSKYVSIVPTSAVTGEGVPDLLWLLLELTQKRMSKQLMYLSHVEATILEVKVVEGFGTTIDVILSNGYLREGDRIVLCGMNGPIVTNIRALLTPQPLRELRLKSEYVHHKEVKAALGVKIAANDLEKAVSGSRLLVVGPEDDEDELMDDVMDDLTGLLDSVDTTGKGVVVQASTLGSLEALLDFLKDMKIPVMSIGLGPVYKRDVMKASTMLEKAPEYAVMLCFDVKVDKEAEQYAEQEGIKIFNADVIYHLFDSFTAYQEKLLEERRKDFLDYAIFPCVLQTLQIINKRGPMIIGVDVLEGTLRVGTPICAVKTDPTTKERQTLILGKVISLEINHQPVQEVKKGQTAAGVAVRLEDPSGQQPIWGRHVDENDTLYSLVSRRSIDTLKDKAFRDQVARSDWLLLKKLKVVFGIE

[3] = target: P-stalk of 80S ribosomes from the SDPM yeast mutant strain (S to A mutations within all P-stalk proteins at the C-termini) (S. cerevisiae), P05317
[4] = target: native (phosphorylated) yeast pentameric P-stalk complex ΔuL10(199-312)-(P1A–P2B)-(P1B–P2A) (S. cerevisiae), P05317; assay: MST; P-stalk complex labelled with RED-tris-NTA on its His tag, 5 nM, titrated with unlabelled eIF5B (dilution series from 1.48 μM); PBS with 0.05% Tween-20 and 1 mg/ml BSA; 25 °C; Monolith NT.115 Pico

Molecule: eEF2 (from UniProt P32324 1-842) (enzyme)
GTPase activity of eEF2 (0.05 µM, 10 µM GTP) with 0.2 µM 80S ribosomes from the WT strain (phosphorylated P-stalk on the ribosome): average GTPase rate [1]: 0.019 min⁻¹ | GTPase activity of eEF2 (0.05 µM, 10 µM GTP) with 0.2 µM 80S ribosomes from the SDPM strain (S to A, dephospho-mimicking P-stalk on the ribosome): average GTPase rate [2]: 0.044 min⁻¹

B2: eIF5B, P39730 1-1002 (enzyme)
chain: T1 sequence (looked up)
GTPase activity of eIF5B (0.05 µM, 10 µM GTP) with 0.2 µM 80S ribosomes from the SDPM strain (S to A, dephospho-mimicking P-stalk on the ribosome): average GTPase rate [3]: 0.02 min⁻¹ | Kd [4]: 11.2 µM

The next lines start with the values.

GTPase activity of eEF1A (0.05 µM, 10 µM GTP) with 0.2 µM 80S ribosomes from the WT strain (phosphorylated P-stalk on the ribosome): average GTPase rate [1]: 0.008 min⁻¹ | GTPase activity of eEF1A (0.05 µM, 10 µM GTP) with 0.2 µM 80S ribosomes from the SDPM strain (S to A, dephospho-mimicking P-stalk on the ribosome): average GTPase rate [2]: 0.019 min⁻¹
Molecule: eEF1A (from UniProt P02994 1-458) (enzyme)

Kd (eIF5B): 4.6 µM and 4.5 µM
B1: AP-treated (dephosphorylated) yeast pentameric P-stalk complex ΔuL10(199-312)-(P1A–P2B)-(P1B–P2A) (complex, S. cerevisiae)
chain 1: SSILDITDEELVSHFVSAVSTIASISLAIGYPTLPSVGHTLINNYKDLLAVAIAASYHYPEIEDLVDRIENPEKYAAAAPAATSAASGDAAPAEEAAAEEEEESDDDMGFGLFD
chain 2: MSTESALSYAALILADSEIEISSEKLLTLTNAANVPVENIWADIFAKALDGQNLKDLLVNFSAGAAAPAGVAGGVAGGEAGEAEAEKEEEEAKEESDDDMGFGLFD
chain 3: MKYLAAYLLLVQGGNAAPSAADIKAVVESVGAEVDEARINELLSSLEGKGSLEEIIAEGQKKFATVPTGGASSAAAGAAGAAAGGDAAEEEKEEEAKEESDDDMGFGLFD
chain 4: MSDSIISFAAFILADAGLEITSDNLLTITKAAGANVDNVWADVYAKALEGKDLKEILSGFHNAGPVAGAGAASGAAAAGGDAAAEEEKEEEAAEESDDDMGFGLFD
chain 5: MKYLAAYLLLNAAGNTPDATKIKAILESVGIEIEDEKVSSVLSALEGKSVDELITEGNEKLAAVPAAGPASAGGAAAASGDAAAEEEKEEEAAEESDDDMGFGLFD
notes: ribosomal P-stalk protein P1A, S. cerevisiae; ribosomal P-stalk protein P2B, S. cerevisiae; ribosomal P-stalk protein P1B, S. cerevisiae; ribosomal P-stalk protein P2A, S. cerevisiae; For MST the complex was labelled with RED-tris-NTA on the His tag; also called dephospho P-stalk; dephospho-P-stalk complex; copies: + + + +
